Data: patent US20210284751A1 (MELLITUS, published 2021)

What was measured:
[1] = molecular target: T1, K41 Amadori-modified glycated CD59 (GCD59) (human, UniProt P13987 26-102, Amadori-modified (glycated) lysine at K41, numbered on SEQ ID NO: 1); test: sandwich ELISA on urine dilutions (6, 3, 1.5, 0.75, 0.37, 0.18 %): H9 capture, D2 detection, HRP secondary antibody, OD 450 nm converted to SPU with the calibration curve
T1 construct: also called Amadori-modified GCD59; Amadori-modified hGCD59
T1 sequence: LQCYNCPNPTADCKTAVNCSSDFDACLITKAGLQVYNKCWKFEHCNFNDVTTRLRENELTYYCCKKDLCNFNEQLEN
Method: GCD59 detection in urine samples was carried out using detection antibody D2, described above, specific for Amadori-modified GCD59. Assay plates were first coated with CD59 capture antibody. H9. Urine samples were obtained from two subjects, one known to have a high level of HbA1C (HbA1C-H) and one known to have a low level of HbA1C (HbAC1-L). High levels of HbA1C are a known indicator of elevated blood glucose. Samples were prepared by first adding beta-mercaptoethanol (BME) to a final concentration of 5%. Samples were then boiled at 100° C. for 5 min and centrifuged to pellet any debris. Supernatants were then isolated for the assay. A surrogate compound standard, as shown in FIG. 27 of U.S. Pat. No. 9,417,248, was used to prepare a dilution series for generating a calibration curve. The Amadori-modified GCD59 surrogate included synthetic compounds including capture and detection peptides linked by a flexible linker.
Standard samples, urine samples, as well as control samples [serum dilution buffer (50 mM Acetic acid/Na acetate; 2% NonIdet P40 Substitute; 0.15% Tween 20; 0.1% Triton X-100; 50 ppm ProClin 300) only] were added to the assay plate in triplicate. Urine samples were further diluted using serum dilution buffer to create a series of conditions ranging from 6% v/v urine sample to 0.2% urine sample in serum dilution buffer. […]

CD59 (human CD59, hCD59) = molecular target: T2, CD59 (human CD59, hCD59) (human, UniProt P13987 26-102); test: hybridoma antibody characterisation, method not described
T2 construct: also called non-glycated CD59
T2 sequence: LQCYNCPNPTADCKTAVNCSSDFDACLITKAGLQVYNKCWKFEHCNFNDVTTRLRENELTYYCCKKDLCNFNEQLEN

binding result [1]: binds
binding result (CD59 (human CD59, hCD59)): binds
B1: antibody H9 (clone H9), CD59 capture antibody (antibody, mouse IgG1, kappa, V domains shown)
VH: EVQLVESGGDLVKPGGSLKLSCAASGFTFSSYGMSWVRQSPDKRMEWVATISSGGSYTYYPDSVKGRFTVSRDNAKNTLYLQMSSLRSEDTAIFYCVRDRYDGMDYWGQGTSVTVSS
VL: DVVMTQSPLSLPVSLGDQASISCRSSQSLVHSNGNTYLQWYLQKPGQSPNLLIYKVSNRFSGVPDRFSGSGSGTDFTLKISRVEAEDLGVYFCSQSTHVPFTFGSGTKLEIKR
notes: Mouse hybridoma monoclonal antibody
